Patent publication US20210189432A1 (UNIVERSITY OF UTAH RESEARCH FOUNDATION, published 2021)

Tests used:
[1] = biological target: the molecule itself; assay: negative stain EM of purified protein (self-assembly)
[2] = biological target: the molecule itself; assay: formaldehyde crosslinking in situ in HEK293 cells, western blot
Protocol: Western blot samples were mixed with 4× Laemlli buffer (40% glycerol, 250 mM Tris, 4% SDS, 50 mM DTT, pH 6.8) and heated at 70° C. for 5 min. SDS-PAGE gel electrophoresis was used to separate protein samples. Separated samples were transferred to a nitrocellulose membrane (GE Healthcare). Following transfer, membranes were briefly stained with 0.1% Ponceau stain, then destained with 1% acetic acid to remove background, for imaging of total protein. […] Membranes were washed 3×10 min in 1×TBS, then incubated in an HRP-conjugated secondary antibody (Jackson ImmunoResearch) in block for 1 h at RT. After 3×10 min in 1×TBS, a chemiluminescent kit (Bio-Rad, Hercules, Calif.) was used to detect the protein bands, and the membranes were imaged on an Azure c300 gel dock (Azure Biosystems, Dublin, Calif.). Blots were analyzed and quantified using the Gel Analysis plugin in ImageJ.
Media was removed and pelleted cells were then crosslinked with 0.4% formaldehyde in PBS for 10 min with rocking at RT. Cell suspensions were immediately quenched with Tris to a final concentration of 50 mM and repelleted. […] Lysates were cleared by centrifugation at 21,000×g for 10 min at 4° C. and cleared supernatants were then run on a 4%-8% gradient gel and analyzed via western blot with antibodies for Arc (mouse monoclonal, Santa Cruz) and GFP (chicken polyclonal, Ayes).

| Protein | binding result [1] | binding result [2] |
| --- | --- | --- |
| Drosophila Arc homolog dArc1 (Drosophila Arc1, NP_610955.1) (other, UniProt Q7K1U0 1-254, looked up) MAQLTQMTNEQLRELIEAVRAAAVGAAGSAAAAGGADASRGKGNFSACTHSFGGTRDHDVVEEFIGNIETYKDVEGISDENALKGISLLFYGMASTWWQGVRKEATTWKEAIALIREHFSPTKPAYQIYMEFFQNKQDDHDPIDTFVIQKRALLAQLPSGRHDEETELDLLFGLLNIKYRKHISRHSVHTFKDLLEQGRIIEHNNQEDEEQLATAKNTRGSKRTTRCTYCSFRGHTFDNCRKRQKDRQEEQHEE | binds | – |
| myc-Arc-WT (full-length rat WT Arc expressed in HEK293 cells) (other, Crosslinked in situ inside transfected HEK293 cells with formaldehyde; also called WT myc-Arc; not shown: myc tag of pRK5-myc-Arc) MELDHMTTGGLHAYPAPRGGPAAKPNVILQIGKCRAEMLEHVRRTHRHLLTEVSKQVERELKGLHRSVGKLENNLDGYVPTGDSQRWKKSIKACLCRCQETIANLERWVKREMHVWREVFYRLERWADRLESMGGKYPVGSEPARHTVSVGVGGPEPYCQEADGYDYTVSPYAITPPPAAGELPEQESVGAQQYQSWVPGEDGQPSPGLDTQIFEDPREFLSHLEEYLRQVGGSEEYWLSQIQNHMNGPAKKWWEFKQGSVKNWVEFKKEFLQYSEGTLSREAIQRELDLPQKQGEPLDQFLWRKRDLYQTLYVDAEEEEIIQYVVGTLQPKFKRFLRHPLPKTLEQLIQRGMEVQDGLEQAAEPSVTPLPTEDETEALTPALTSESVASDRTQPE | – | binds |
